A short description of this data set: label from the status in PepcDB records.
For “MTSVMPFAHLLLALLVVFVWGINFIFVKLSLEEFSPLLLCAVRFLLASVPAVFFIKPPAVPFKIIASYGLIMFALQFALLFIGLRVGMTPGVASLLMQVQVFFSMFFAIIFLGEQPQVGQIIGALIAFIGIGVVALHFDHNVSLMGFLCILAAAASWGIGNLITKKIHSVNLIAVIVWSSFVACLPMFILSLVFEGPESFVTAYEHMTWKGILSVLYIVYISTWVGYGVWNWLISRYPVGMVVPFTLLVPVVGILSSVLILGEPFYLWKLVAGLLVISGLCINLLTTRLFVAKTQQPETA”, the protein production entry is “failed”. With “MFQLRKKMTRKQLALLSAGVLTCVVGGSYLIMNHQQQEIVSSVNKVKALTIKEAMEQGKDISLTLAGEVTANNSSKVKIDSSKGEVKEVFVKKGDVVKVGQPLFSYETSQRLTAQSSEFDVQTKANQLQVAKTNAALKWETYNRKVNEINTLKSRYNTAPDESLLEQIRSAEDSVSQALSDAKTADSDVKTAQIELDKANATATTEKGKLEYDTVKSDTAGTIVSLNTDLPNQSKSKKENETFMEIIDKSKMLVKGNISEFDRDKLKIGQKVEVIDRKDNSKKWTGKVTQVGNLKAEEKGQGQGQGGNDQQDNPNQAKFPYVIELDQSDKQPLIGSHTYVNVLNNVPEAGKIVLKETFTMAENGKTYVWKVDKNKVKKQEIKTKPFSKGYVEVTSGLTMQDKIAQPLPGMKDGMEVGSIVKP”, the protein production entry is given as “failed”.

As for “MTIMTARFASILLGGCLAASLFSGPVFAVGNDNSTMPTCKKGEIYDQKTKKCVKQQSANVSDENRTDYAYSLAKAGRYEEALAMLDTVKDQNSAEVLNYRGYATRKLGRTDEGISYYLQSVKMDPQYAKVREYLGEAYVIKGRLDLAKEQLTTIKAICGTACEEYQDLNAAILNPSKI”, the protein production result was “failed”. Take “MELTQTHLLPVPLQTAWDALNDPAVLQRCIPGCESVTAATEHAYDIAMTAAVGPVKARFKGRMELADIVPPRSYTLHFDGQGGAAGFGKGTAQVQLAPEGPTVTRLSYTAHAQVGGKLAQIGSRLIDGAARKLADEFFQRFASEFGPAGGTGPLDAAPADQAIPDLASGELAAHGAPRTPLISPAVQPRNPWPWIIVALVAIVAAYLFLHHGA”: the protein production result is listed as “failed”. For “MENIEYVFEDVVRIYDTDAQGIAHYAAYYRFFTNTIEKFIKEKVGIPYPIVNENLWFVIAESHAIYHRPVKLGDKLTVLLNPKILSNKTIKFEFKVLKDGELTTEGYVIQIAINPKIWKSTEMPKEIMDKLSIK”, the protein production entry was “not failed”. Consider “MLHKRASEANDKNDNTIIGSDLASSKKRRIDFTESSSDKSSSILASGSSRGFHGDSVVQQIDMAFGNSNRQEIDEDLHSRQLAVYGRETMRRLFASNVLISGMHGLGAEIAKNLILAGVKSVTLHDERVVELWDLSSNFVFSEDDVGKNRADASVQKLQDLNNAVVVSSLTKSLNKEDLSGFQVVVFSDISMERAIEFDDYCHSHQPPIAFVKADVRGLFGSVFCDFGPEFAVLDVDGEEPHTGIIASISNENQAFISCVDDERLEFEDGDLVVFSEVEGMTELNDGKPRKIKSTRPYSFTLDEDTTNYGTYVKGGIVTQVKQPKLLNFKPLREALKDPGDFLFSDFSKFDRPPLLHLAFQALDHFKAEAGRFPVAGSEEDAQKLISIATAINTGQGDLKVENVDQKLLRHFSFGAKAVLNPMAAMFGGIVGQEVVKACSGKFHPLFQFFYFDSVESLPSEPVDSSDFAPRNSRYDAQISVFGAKFQKKLEDAKVFTVGSGALGCEFLKNLALMGVSCGSQGKLTVTDDDIIEKSNLSRQFLFRDWNIGQAKSTVAASAAAVINPRFNIEALQNRVGAETENVFDDAFWENLTVVVNALDNVNARLYVDSRCLYFQKPLLESGTLGTKCNTQSVIPHLTENYGASRDPPEKQAPMCTVHSFPHNIDHCLTWARSEFEGLLEKTPAEVNAYLSSPVEYTNSMMSAGDAQARDTLERIVECLEKEKCETFQDCLTWARLRFEDYFVNRVKQLIYTFPEDAATSTGAPFWSAPKRFPRPLQYSSSDPSLLNFITATAILRAETFGIPIPEWTKNPKEAAEAVDRVIVPDFEPRQDAKIVTDEKATTLTTASVDDAAVIDDLIAKIDQCRHNLSPDFRMKPIQFEKDDDTNYHMDVIAGLANMRARNYSIPEVDKLKAKFIAGRIIPAIATSTAMATGLVCLELYKVLDGGHKVEAYRNTFANLALPLFSMAEPLPPKVVKHRDMAWTVWDRWVLKGNPTLREVLQWLEDKGLSAYSISCGSCLLFNSMFTRHKERMDKKVVDLARDVAKVELPPYRNHLDVVVACEDEDDNDVDIPLVSIYFR”, for which the protein production result is on record as “failed”. Regarding “QKNPDSYNGAVRENYTWSQDYTDLEVRVPVPKHVVKGKQVSVALSSSSIRVAMLEENGERVLMEGKLTHKINTESSLWSLEPGKCVLVNLSKVGEYWWNAILEGEEPIDID”, the protein production result was “not failed”.

Consider “MIQALLQRYEKKIERRKLEKRTAFGAFAGRIGLVSNLFLFVSKFMIGLLSGSVSIMADAINSLSDTISSVLTLVGFYIAGKPADKEHPYGHERFEYISGMLVSLVITFIGFEFLTTSVDRILHPESIKVTPILFAVLALSIGIKIWQGLFYKKVSAKIDSQALVASAKDSFNDVYTTLAVLISAFIEGVTGLRIDGYIGFLIAAYIIYSGLQLIREFINELMGMRPSQTEIDEMKNVLSKMETIVGYHDLLIHNYGPSQTFASVHIEIDDRWDLNKAHQTIDAIEAKFKEELDVNLVCHIDPVNLYDPTQQFVHQTIKKIIRSFDASLKVHDIRLVTHGEEPKILFDLVLPTESKLSEFELGVEIQRQVYEKIGRYKVEITFDHTYLLQ”, for which the protein production result is given as “failed”. Turning to “PETYGRLVEPTTLKIERLLPGPIERVWAYLTQSDLRRRWLASGEMRLAPDAPFELVWRNDELSDPPGHRPEGFSEEEKMASRIITVVPPHHLVFSWGESGEVSIELQALGKDVLLTLIHRRLVGRKTKLDVSAGWHVHLDILAARLQEKEPAPFWDTWLALKEEYEPR”, the protein production result is on record as “failed”.

On to “YYNIYYPRGKDFYNVGGDYKFFWKRFSLLGETAIDKCGTWATMNMLRYSPKGGTQLIVMNRYYDAKYQSVYARSIGEGSTVQNESGFYIGLETSILKYIKMTCYGDFFYFPWKKYLVSKAGTKGLDGLLQLSYSPTYELEMFIRYRYKKKEKDFTAADKTKQTIPSIQQKCRYQLNYSVKDKLTLKTIADYVRINFRGQSASNGFLVSQSAAYTFHLLPLQLDLSAAWFNTDDYNSRLTIYEKSVLYAFSMPSFYYKGMRVAVNARYELNKHIILQAKYGTTHYFNRDKISSALEEIDGSTKSDLYLQLRLKF”, for which the protein production result was “failed”. The result for “MSLGTIIIVDDNKGVLTAVQLLLKNHFSKVITLSSPVSLSTVLREENPEVVLLDMNFTSGINNGNEGLFWLHEIKRQYRDLPVVLFTAYADIDLAVRGIKEGASDFVVKPWDNQKLLETLLNAASQAKDGKKEGHHHHHH” reads “not failed”.

With “MDGFVQWMEKHFMPKASVIAAQRHLVAIRDAFVVTMPLMILGALAVLINNIPIPGYEDFLNKIFPMMYNDAPIWKSFGGNIWNGTFAIFAVLVAFLVAHNLVKSYGKDGIAAGTVSVASFFAVGGLEGMGATGLFIALIIALISGELFQRLSGNPKLVIKMPDGVPPAVAKSFAALLPAMITISLFSLITSILFALGIDNIVISFYEAVQQPFMGLANSYPSALLLAFITPFLWFFGLHGANMVDPLMQTINVPAIDANIKALEAGKAIPYIVNKPFFDSFVNLGGTGATLGLLIAIFIVGRRNKPYKVITNLSLAPGLFNINEPVMFGLPIVLNPIMFIPFILVPMVLVTVAYVATATGLVPAATFMPPWVTPPIIGGFLATKSIAGGVLAAVNLLISILIYMPFVKVATDQYLKQEAAAEAAE”, the protein production result is given as “failed”. With “MEVDTMETLIRLFVSILIICVLALMIKKSRCLDNEGVIGSSIMGFILLYFCGFKYLILLLSFFILGVLVSRVGLEKKKAKKMDETCRSLKNVLANGLIPILFAILAIFGFNWALIGYISSIAAATSDTFSSELGILSNEKPRLITTFEVVEKGTDGAITIFGTLAGVLGAFLIGLFGYLLFGDIKIVLCGTAGGIAGNLADSLVGALFERKGILNNEHVNLIATIVGGIIGVLIYCTL”, the protein production entry was “failed”. As for “MSVSIAYLAVLLIWSTTPLGIVWSSESINPSLAVLLRMLIALVLGALVIKIRNIHIPWHKQAVKLYSFSALGIFGGMLCSYLSAAYLSSGIISLVFGLSPVISALLAKKILSEPNISGMRKFSMAISLIGLAVVCSDNFTLADDGIYGIIFILMAVFFFSLSGVLVKSVSLAIHPLATTVGALSVATPLFLVSWLLLDGTLPIETWQAKSLWATLYLGVFGSLIGFYAYFTVLQKLSASNVTLITLITPVIALTLGAVLNGEVINDKLILGAFMVLLGLSIYHFGHLLPRLKKKRARS”, the entry is “failed”.

The values are drawn from a protein production outcome set (Wang et al. 2014).
